The values that follow are results of earlier work, collected in article PMC8256087.

The data set has as its target FtsY (Escherichia coli) (UniProt P10121).

FtsY (Escherichia coli), sequence (P10121 2-497): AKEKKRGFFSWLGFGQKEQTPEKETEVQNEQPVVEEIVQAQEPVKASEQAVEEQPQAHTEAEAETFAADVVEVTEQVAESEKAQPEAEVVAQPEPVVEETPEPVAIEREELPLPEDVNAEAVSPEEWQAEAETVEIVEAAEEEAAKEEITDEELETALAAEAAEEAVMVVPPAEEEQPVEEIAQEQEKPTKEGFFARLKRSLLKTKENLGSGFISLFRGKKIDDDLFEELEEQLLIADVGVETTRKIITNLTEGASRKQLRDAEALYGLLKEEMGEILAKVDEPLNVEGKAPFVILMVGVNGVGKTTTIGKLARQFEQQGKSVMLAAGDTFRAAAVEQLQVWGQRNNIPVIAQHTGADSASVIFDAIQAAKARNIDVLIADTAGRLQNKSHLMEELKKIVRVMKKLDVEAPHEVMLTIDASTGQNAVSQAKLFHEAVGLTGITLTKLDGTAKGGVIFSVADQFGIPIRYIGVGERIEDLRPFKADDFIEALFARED
SecYEG translocon, sequence (P0AGA2 whole entry): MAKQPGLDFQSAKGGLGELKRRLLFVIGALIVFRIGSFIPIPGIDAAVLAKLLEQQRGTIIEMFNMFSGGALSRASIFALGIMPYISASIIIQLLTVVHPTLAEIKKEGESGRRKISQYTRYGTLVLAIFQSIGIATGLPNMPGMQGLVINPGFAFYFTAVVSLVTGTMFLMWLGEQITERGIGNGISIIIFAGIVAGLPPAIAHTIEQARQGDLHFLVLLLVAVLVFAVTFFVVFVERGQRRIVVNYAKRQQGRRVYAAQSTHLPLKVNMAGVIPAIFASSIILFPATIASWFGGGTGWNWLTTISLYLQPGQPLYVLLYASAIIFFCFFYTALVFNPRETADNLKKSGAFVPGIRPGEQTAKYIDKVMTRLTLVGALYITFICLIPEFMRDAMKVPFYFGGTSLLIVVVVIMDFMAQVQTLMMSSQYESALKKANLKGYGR
SecYEG translocon, sequence (P0AG96 whole entry, further chain): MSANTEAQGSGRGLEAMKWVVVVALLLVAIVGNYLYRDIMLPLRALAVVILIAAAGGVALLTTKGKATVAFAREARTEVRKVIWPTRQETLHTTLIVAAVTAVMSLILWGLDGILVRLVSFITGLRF
SecYEG translocon, sequence (P0AG99 whole entry, further chain): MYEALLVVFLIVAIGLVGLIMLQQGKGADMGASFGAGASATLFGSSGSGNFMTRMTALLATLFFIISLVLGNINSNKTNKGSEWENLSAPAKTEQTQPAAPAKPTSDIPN

Take SecYEG translocon (from UniProt P0AGA2): the Kd was 0.2 µM.
